# B1: Twister Ribozyme (parent)
# chain: AACACUGCCAAUGCCGGUCCCAAGCCCGGAUAAAAGUGGAGGGGGCGG
# Variants of: B1
# Assay: self-cleavage, relative activity (ratio to wild type); higher = more cleavage; co-transcriptional
row,Variant,self-cleavage
1,C19G U37G,0.0722
2,C14A A22G,0.407
3,C14A A22C,1.09
4,G7C G48C,0.0656
5,A10G A22G,0.268
6,C26G A32C,0.141
7,C8U,0.777
8,C8A,0.61
9,U31A G48U,0.881
10,G43C C46G,0.174
11,U37G G44A,0.703
12,G16C A23C,0.0636
13,C5A A10U,0.39
14,C9U G24C,0.0718
15,G24U G41C,0.0917
16,C8A A11U,0.7
17,C20U G45A,0.838
18,A35C G38U,0.881
19,A22U C25U,0.513
20,G13U G36C,0.0949
21,U18C A34U,0.149
22,U6C A22U,0.141
23,U12A C15U,1.1
24,A11G G45A,0.811

row,Variant,self-cleavage
1,C8U A30G,0.766
2,C26G G29A,0.132
3,U6G A22U,0.136
4,U12C G39C,0.127
5,A40C G44C,0.226
6,G28U G29U,0.972
7,G38U G47U,0.813
8,C21A G42U,0.0873
9,A34G C46U,0.834
10,C15G A32U,0.0633
11,A1G G44A,0.309
12,A23U A34C,0.0966
13,C14G C21U,0.0834
14,C27A A30G,0.529
15,G24C G45A,0.0924
16,U6C C27A,0.0694
17,G36C G41A,0.134
18,C3U C20G,0.0703
19,A2G G39A,0.143
20,C15G C25A,0.0585
21,U12G G36U,0.397
22,U12A C26G,0.446
23,A30U G48C,1.07
24,A1U C8U,0.087

row,Variant,self-cleavage
1,G41C C46A,0.254
2,A35C C46A,0.98
3,A35C C46U,0.879
4,A33G G44A,0.79
5,A2C A23U,0.0734
6,G39U A40C,0.134
7,U37C C46U,0.627
8,C27G G44A,0.0871
9,U31G A35G,0.682
10,G42C G43C,0.365
11,G24U G48A,0.0944
12,C14G A34U,0.159
13,C25A C26G,0.0788
14,G28A G39A,0.326
15,G16A A40G,0.17
16,C3G G24C,0.0852
17,C5A G7C,0.0608
18,C5A G7U,0.0804
19,C15G G36A,0.0815
20,C5U G29A,0.739
21,A35G G41A,0.246
22,C9A C46U,0.758
23,A1G C19A,0.247
24,G7A C14G,0.0811

row,Variant,self-cleavage
1,U18C G41U,0.13
2,A11C A40U,0.153
3,C9U G13U,0.826
4,U6A G38A,0.738
5,G45U G48C,1.48
6,A22C G47A,0.909
7,C3A G16A,0.109
8,G17U A35G,0.1
9,A4U G38U,0.138
10,A22C G28U,0.937
11,U6G U12A,0.769
12,C15U U31C,0.923
13,A11U C15U,1
14,A4C U12C,0.228
15,G7A G42U,0.136
16,C26A G36A,0.0875
17,G16A G41U,0.396
18,G36A A40C,0.115
19,A4C A34G,0.0947
20,A10G G16U,1.14
21,A11U C14U,1.13
22,A11C G28C,0.431
23,C8A G47C,0.169
24,C14U G38A,1.02

row,Variant,self-cleavage
1,A1G C8G,0.262
2,A2G C19A,0.0723
3,A30G U37G,0.92
4,G28A G29U,0.9
5,G24U A34U,0.116
6,A30C A35C,0.808
7,C15G U37C,0.114
8,C14U G28A,1.09
9,U18C G44C,0.49
10,C25A A30G,0.233
11,A23G G42C,0.176
12,C21U A33G,0.146
13,C3G C15G,0.133
14,C3G G45C,0.207
15,C21U A23C,0.0826
16,A30C G38U,0.715
17,G13U A35C,0.587
18,A11U G16U,0.544
19,A10G A30C,0.981
20,G28C G47A,0.28
21,G17C G28U,0.0606
22,A1G C9A,0.226
23,A30C A40U,0.0909
24,C3G G44C,0.345

row,Variant,self-cleavage
1,A11C,0.906
2,G29C G41U,0.125
3,A1C G28U,0.183
4,C20A A23G,0.0659
5,C8U G17A,0.119
6,A11U G47C,0.624
7,C9A C15A,0.35
8,A2U U6C,0.0754
9,A22G G48C,0.318
10,G16A G24C,0.0993
11,A32U G39C,0.144
12,C9G C46G,0.576
13,A10U A32C,0.983
14,A22G C27A,0.0974
15,A22U C27G,0.0668
16,A23U A30U,0.501
17,G7A G44U,0.422
18,C8G U37G,0.108
19,A35U G39U,0.134
20,A4C G41A,0.0502
21,C5U C15A,0.385
22,C19A A22G,0.0827
23,C19A A35U,0.29
24,G28A G43C,0.163

row,Variant,self-cleavage
1,A10C G41C,0.23
2,A2C U37C,0.0354
3,C14A U18C,0.371
4,C27G A35U,0.0981
5,U31A G47A,0.628
6,U12G A40G,0.163
7,A2U G43C,0.137
8,U12C U37A,0.747
9,G42A G48A,0.296
10,C14A A23G,0.525
11,C20U C46G,0.815
12,A11C C46G,0.917
13,A34U G38U,0.506
14,C26G G45U,0.156
15,C25G G39U,0.121
16,C20U A33U,0.778
17,A11C C15A,0.24
18,A2C C25G,0.0416
19,C3A C25U,0.16
20,G43U C46U,0.426
21,C5A U37C,0.124
22,C25U A35G,0.46
23,U18A G42C,0.215
24,C9G G41C,0.145

row,Variant,self-cleavage
1,A40U G42A,0.136
2,A40U G42C,0.157
3,C27U G47C,0.323
4,A10C G47U,0.741
5,C20U G28U,0.906
6,A4C G44A,0.165
7,A34G G48U,0.876
8,G16A A33C,0.799
9,U6C A11C,0.292
10,A10U G48A,0.959
11,A1U G39U,0.0746
12,C8U G36A,0.18
13,G7U U31G,0.131
14,C3G C27G,0.0859
15,A10C A30G,0.969
16,A10C C25G,0.31
17,G16C C26A,0.35
18,A40U G48C,0.209
19,A22G A30C,0.111
20,A33U G45C,0.554
21,C21G A33U,0.0662
22,C15G C20A,0.0716
23,A22C G38C,0.976
24,C25U U37G,0.332

row,Variant,self-cleavage
1,U6C A10C,0.772
2,U18C A33C,0.386
3,C9G G42A,0.12
4,C3A U12C,0.425
5,A32C A35G,0.8
6,C15U C21G,0.0408
7,G13U C15G,0.108
8,U37C G48C,0.843
9,U18G G29U,0.0942
10,A11U G24C,0.0932
11,A1C G24C,0.168
12,A11G A34G,0.819
13,C14G G42A,0.0786
14,C14A U37C,0.619
15,C14A U37G,0.725
16,A30C,0.911
17,G29A G41C,0.22
18,G16U G36A,0.426
19,G7U U37A,0.0497
20,G17U U18A,0.148
21,G17U U18G,0.106
22,C25U G43C,0.102
23,C5U C20G,0.102
24,U6G A33G,0.199

row,Variant,self-cleavage
1,A30U U31A,0.931
2,A11G G42A,0.441
3,C8A G28C,0.159
4,A1C G45A,0.184
5,U12C G42U,0.331
6,A10U G44U,0.971
7,A11C G17C,0.0996
8,C19A G43A,0.355
9,C9U C25A,0.1
10,A32U G42U,0.298
11,C9U G41A,0.121
12,C9G A22G,0.0988
13,U12G U18G,0.0252
14,A1U A33G,0.0708
15,A1C A11C,0.145
16,U18G A32U,0.0793
17,C3U A33U,0.471
18,C5A A35G,0.328
19,A30G A40U,0.0959
20,C3U G29U,0.464
21,U37C G43C,0.102
22,C27U G39C,0.136
23,C27U G39A,0.253
24,C5A C26U,0.0777

row,Variant,self-cleavage
1,C19G C20G,0.0478
2,G13U G17A,0.078
3,A10C A32U,0.892
4,A32G A33U,0.914
5,G13A G28C,0.581
6,C20U G39C,0.0926
7,C8G G24A,0.203
8,G13A G41U,0.131
9,A34C G38C,0.157
10,A4U G41A,0.0938
11,C9G A35G,0.591
12,A2G C5G,0.144
13,A2G G29U,0.344
14,G16A U18G,0.0863
15,A10U U31G,0.948
16,A2G G41C,0.141
17,C20U G48C,1.04
18,G17C G24C,0.0583
19,A11U G44C,0.969
20,U6A G39C,0.183
21,C5G A23U,0.136
22,A10G G42C,0.618
23,C3G A23C,0.137
24,C3G A23G,0.106

row,Variant,self-cleavage
1,A35C G45U,0.855
2,U31A G41A,0.452
3,U6C C9G,0.122
4,C21G A35G,0.0519
5,G13C U18C,0.0885
6,C20A G48U,0.142
7,C21G G48A,0.146
8,G29U G44C,0.858
9,A1U C25U,0.0883
10,C8G A34G,0.276
11,G16C G29U,0.194
12,U6A C26G,0.132
13,C15U A33U,1.01
14,A33U G43U,0.421
15,A23U G41U,0.137
16,A2G C27U,0.218
17,A2G C27G,0.138
18,G16U A23U,0.238
19,G41U C46G,0.509
20,A11U C26A,0.674
21,G41A G42U,0.156
22,G17U A33G,0.317
23,A4U U31G,0.161
24,A33U G48C,1.08

row,Variant,self-cleavage
1,G17C A33G,0.093
2,C21U G44U,0.0882
3,C9U A23C,0.0976
4,C5G A34C,0.117
5,C5G A34G,0.384
6,C5G G29C,0.306
7,A34U G48C,0.855
8,U12A,1.11
9,C25A A35G,0.0612
10,G16A G29A,0.639
11,U31C G44U,1.01
12,G16A U31A,0.958
13,G44U G47U,0.783
14,A1U G43A,0.0467
15,C26G G48C,0.229
16,C8U A10G,0.655
17,G7C A32G,0.105
18,C14G C20G,0.111
19,A2G G7A,0.07
20,C15U A32C,0.678
21,A22U C46U,0.773
22,G36C G48A,0.422
23,G17C C21A,0.0572
24,C5G G7C,0.0519

row,Variant,self-cleavage
1,C19A,0.384
2,A1G G39A,0.206
3,U6G G39U,0.105
4,A40U G41U,0.145
5,A30C A32G,0.821
6,A2C C9A,0.0489
7,C3G G42C,0.128
8,U18G G43U,0.0664
9,G13A A23U,0.0933
10,G43A G48A,0.244
11,A11C G29U,0.681
12,G43U G47C,0.177
13,C8G C20A,0.11
14,G13A A40C,0.224
15,A33U A40C,0.234
16,A32U U37G,0.737
17,A32U U37C,0.669
18,A11G G47U,0.861
19,U31A G45C,0.347
20,A11G U12G,0.743
21,U31C A33G,0.891
22,C3A C9A,0.155

# — the RNAGym collection of RNA variant scans (doi:10.7554/elife.80360)
